Measurements as given in PMC10570036, “Yeast transcription factor Msn2 binds to G4 DNA”.

Legend:
[1] = biological target: T1, GST-Msn2(596-704) zinc-finger domain (Saccharomyces cerevisiae, UniProt P33748 596-704); assay: EMSA; folded in 100 mM K+; EMSA: oligos (0.1 uM) folded in 10 mM Tris-HCl pH 7.5, 100 mM KCl or LiCl; binding in 10 mM Tris-HCl pH 8.0, 1 mM DTT, 0.01% NP-40, 5% glycerol, 50 uM ZnSO4, room temperature 30 min; pull-down: 400 pmol biotin oligo folded in 100 mM KCl or LiCl, streptavidin beads, yeast whole cell lysate; conditions: protein: recombinant, tags: N-terminal GST (pGEX4T1), label: 5' Cy5
T1 sequence: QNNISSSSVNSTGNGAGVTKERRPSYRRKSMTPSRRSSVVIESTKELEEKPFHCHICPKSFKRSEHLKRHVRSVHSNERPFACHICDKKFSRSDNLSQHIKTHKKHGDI

[2] = biological target: T1, GST-Msn2(596-704) zinc-finger domain; assay: EMSA; folded in 100 mM K+; 50 uM Zn2+; EMSA: oligos (0.1 uM) folded in 10 mM Tris-HCl pH 7.5, 100 mM KCl or LiCl; binding in 10 mM Tris-HCl pH 8.0, 1 mM DTT, 0.01% NP-40, 5% glycerol, 50 uM ZnSO4, room temperature 30 min; pull-down: 400 pmol biotin oligo folded in 100 mM KCl or LiCl, streptavidin beads, yeast whole cell lysate; conditions: protein: recombinant, tags: N-terminal GST (pGEX4T1), label: 5' Cy5
[3] = biological target: T1, GST-Msn2(596-704) zinc-finger domain; assay: EMSA; EMSA: oligos (0.1 uM) folded in 10 mM Tris-HCl pH 7.5, 100 mM KCl or LiCl; binding in 10 mM Tris-HCl pH 8.0, 1 mM DTT, 0.01% NP-40, 5% glycerol, 50 uM ZnSO4, room temperature 30 min; pull-down: 400 pmol biotin oligo folded in 100 mM KCl or LiCl, streptavidin beads, yeast whole cell lysate; conditions: protein: recombinant; tags: N-terminal GST (pGEX4T1); label: 5' Cy5 on sense strand; blunt
[4] = biological target: T1, GST-Msn2(596-704) zinc-finger domain; assay: EMSA; 100 mM K+; EMSA: oligos (0.1 uM) folded in 10 mM Tris-HCl pH 7.5, 100 mM KCl or LiCl; binding in 10 mM Tris-HCl pH 8.0, 1 mM DTT, 0.01% NP-40, 5% glycerol, 50 uM ZnSO4, room temperature 30 min; pull-down: 400 pmol biotin oligo folded in 100 mM KCl or LiCl, streptavidin beads, yeast whole cell lysate; conditions: protein: recombinant; tags: N-terminal GST (pGEX4T1); label: 5' Cy5 on sense strand; blunt
[5] = biological target: T1, GST-Msn2(596-704) zinc-finger domain; assay: EMSA; folded in K+ or Li+; no significant interaction; EMSA: oligos (0.1 uM) folded in 10 mM Tris-HCl pH 7.5, 100 mM KCl or LiCl; binding in 10 mM Tris-HCl pH 8.0, 1 mM DTT, 0.01% NP-40, 5% glycerol, 50 uM ZnSO4, room temperature 30 min; pull-down: 400 pmol biotin oligo folded in 100 mM KCl or LiCl, streptavidin beads, yeast whole cell lysate; conditions: protein: recombinant; tags: N-terminal GST (pGEX4T1); label: 5' Cy5; G4

B1: Cy5-c-KIT2 (structured_DNA)
DNA: GGGCGGGCGCGAGGGAGGGG
[1]; G4
  binding result: no binding

B2: Cy5-ATG39pG4 (structured_DNA)
DNA: GGACCGGGGGCACACCGGGGTAGGGGGTCCGGAGGGTTAAC
[2]; intramolecular parallel G4
  Kd: 30.2 ± 7.2 nM

B3: Cy5-ATG39pG4Mut (ssDNA)
DNA: GGACCGAGAGCACACCGAGATAGAGAGTCCGGAGAGTTAAC
[1]
  binding result: no binding

B4: Cy5-ATG7 G4 (structured_DNA)
DNA: ATTCTTGGGGCTGGGGTCCCTTGGGGAACTGTATTGGGTGAACC
[1]; G4
  binding result: binds

B5: Cy5-BRCA1-G3 (structured_DNA)
DNA: TGGGTGTTGTTGGGGGAGGGAAATGGGT
[2]; parallel G4 in K+
  Kd: 37.8 ± 11.4 nM

B6: dsCTT1STREMut (dsDNA)
DNA 1: CTCTTTTTCATGTGTATCACCGGTATGTGTCCAATCTGTG
DNA 2: CACAGATTGGACACATACCGGTGATACACATGAAAAAGAG
[3]
  binding result: no binding

B7: dsCTT1 (dsDNA)
DNA 1: CTCTTTTTCAAGGGGATCACCGGTAAGGGGCCAATCTGTG
DNA 2: CACAGATTGGCCCCTTACCGGTGATCCCCTTGAAAAAGAG
[4]
  binding result: binds

B8: Cy5-TPS1pG4Mut (ssDNA)
DNA: CCGCTGAGCAGGTCAGAGCAGAGACTCTCAGAGAGACGCCA
[1]
  binding result: no binding

B9: Cy5-SµG (structured_DNA)
DNA: GAGCTGGGGTGAGCTGGGCTGAGCTGGGGTGAGCTGGGCTGAGCT
[1]; G4
  binding result: binds

B10: Cy5-TPS1pG4 (structured_DNA)
DNA: CCGCTGGGCAGGTCAGGGCAGGGGCTCTCAGGGGGGCGCCA
[1]; G4
  binding result: binds

B11: c-KIT2Long (structured_DNA)
DNA: CCCGGGCGGGCGCGAGGGAGGGGAGG
[5]
  binding result: no binding
